Data taken from doi:10.1101/2021.10.11.463889.

Target: GST-tagged proline-rich domain (PRD) of Dyn2 (human)
Assay: pull-down

Sequence of GST-tagged proline-rich domain (PRD) of Dyn2 (human) (P50570 whole entry, the tested form may be a part): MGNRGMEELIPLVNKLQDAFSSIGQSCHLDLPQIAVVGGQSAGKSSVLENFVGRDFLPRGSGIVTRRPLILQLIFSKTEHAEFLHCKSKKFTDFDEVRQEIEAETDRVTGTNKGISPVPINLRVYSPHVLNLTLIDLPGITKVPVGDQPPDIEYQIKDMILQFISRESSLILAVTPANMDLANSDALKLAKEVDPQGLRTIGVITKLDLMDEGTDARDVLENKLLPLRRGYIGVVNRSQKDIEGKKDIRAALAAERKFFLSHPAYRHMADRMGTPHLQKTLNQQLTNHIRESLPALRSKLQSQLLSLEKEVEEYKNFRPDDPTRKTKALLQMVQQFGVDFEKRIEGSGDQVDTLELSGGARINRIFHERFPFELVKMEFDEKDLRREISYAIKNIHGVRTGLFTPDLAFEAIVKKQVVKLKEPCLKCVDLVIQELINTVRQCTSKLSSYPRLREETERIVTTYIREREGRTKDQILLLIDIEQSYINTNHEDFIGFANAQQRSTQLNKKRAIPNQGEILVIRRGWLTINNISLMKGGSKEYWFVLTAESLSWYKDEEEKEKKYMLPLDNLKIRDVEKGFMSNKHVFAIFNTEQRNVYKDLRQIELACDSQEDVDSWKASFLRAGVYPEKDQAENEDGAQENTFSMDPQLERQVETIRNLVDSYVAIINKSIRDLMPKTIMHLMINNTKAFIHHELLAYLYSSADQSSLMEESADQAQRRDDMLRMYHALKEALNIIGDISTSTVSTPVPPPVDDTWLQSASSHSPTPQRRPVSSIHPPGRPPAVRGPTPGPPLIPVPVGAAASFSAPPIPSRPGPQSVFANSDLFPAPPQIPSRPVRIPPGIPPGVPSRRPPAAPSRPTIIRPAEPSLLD

Kd | Substance
0.18 µM | His-tagged human Bin1 isoform 8, wild type (natural protein)
0.267 µM | His-tagged human Bin1 isoform 8, CNM-associated mutant K436X (domain or fragment)
